Experimental data published in patent publication US6972178B1, “Drug screening using a proline-rich nuclear receptor co-regulatory protein/nuclear receptor co-expression system” (City of Hope, priority 1999, dated 2005).
Entries after “also recorded” stand apart in the source; their conditions may differ. Ends that are not written are not given here.

Experiments:
SF1 [1] = target: T1, SF1 (Bos taurus, UniProt Q04752); assay: Yeast two-hybrid assay (HIS3 / β-galactosidase reporter); type: cell-based, bovine; set-up: The coding region for the wild type bovine SF1 was first subcloned into a yeast expression vector, pGBT9; expressed in transfected cells; host or cells: yeast (Y187, or Y187 x CG1945 diploids); conditions: no ligand
T1 sequence (Q04752 whole entry, the tested form may be a part): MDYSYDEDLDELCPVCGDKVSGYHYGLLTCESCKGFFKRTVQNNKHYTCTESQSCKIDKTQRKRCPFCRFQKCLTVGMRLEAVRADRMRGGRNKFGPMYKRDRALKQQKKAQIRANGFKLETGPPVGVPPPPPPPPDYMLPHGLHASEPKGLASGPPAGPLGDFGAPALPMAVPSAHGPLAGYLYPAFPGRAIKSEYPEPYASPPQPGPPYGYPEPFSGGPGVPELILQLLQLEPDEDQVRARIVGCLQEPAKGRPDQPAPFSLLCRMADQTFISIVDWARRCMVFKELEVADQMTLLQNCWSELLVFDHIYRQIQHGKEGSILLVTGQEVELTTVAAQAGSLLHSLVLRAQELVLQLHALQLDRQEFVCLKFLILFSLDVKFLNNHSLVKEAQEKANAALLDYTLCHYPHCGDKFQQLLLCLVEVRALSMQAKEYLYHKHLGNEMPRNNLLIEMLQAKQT
Procedure: (§1) The protein-protein interactions between the full-length PNRC or PNRC fragments and SF1, ERRα1, and several other nuclear receptors were analyzed by yeast two-hybrid assays. The yeast two-hybrid assay was used to test if PNRC also interacts with other members of the nuclear receptor superfamily. pGBT9-ERRα-1 yeast expression plasmid was prepared by inserting the PCR-amplified ERRA-1 coding region into pGBT9 through an EcoRI site. To construct the plasmid pGBT9-ER274-595, the coding sequence from amino acids 274 to 595 (LBD) of ERα was amplified by PCR with the sense primer 5′-[…]-3′ (SEQ ID NO:1) and antisense primer 5′-[…]-3′ (SEQ ID NO:2) and cloned into the EcoRI/,SalI site of the pGBT9 yeast expression plasmid. pSG5-GRIP1 and several yeast expression plasmids coding for fusion proteins of Gal4-DBD and HBDs of AR, GR, PR, TR, RAR, and RXR in pGBT9 vector were kindly provided by Dr. Michael R. Stallcup (University of Southern California, Los Angeles, Calif.) (Voegel et al., 1996; Hong et al., 1996; Ding et al., 1998). The yeast mating approach was used in yeast two-hybrid assays to study protein-protein interactions as described in Clontech's protocol. Briefly, pGBT9 (DNA-BD vector only), pGBT9/target plasnmids for SF1, ERRα1, and other HBDs of nuclear receptors, and DNA-BD/control plasmids (as negative control) were introduced into the reporter strain Y187, and the AD vector alone or wild type PNRC and its deleted fragments-containing pACT2 derivatives were used to transform yeast strain CG1945. The yeast mating was performed by picking one colony from each type and growing both colonies in liquid YPD medium with or without a proper ligand at the following concentrations: 100 nM of estradiol for ER; 10 μM of deoxycorticosterone for GR; 100 nM of dihydrotestosterone for AR; 500 nM of progesterone for PR; 10 μM of T3 for TR; 10 μM of all-trans-retinoic acid for RAR; and 10 μM of 9-cis-retinoic acid for RXR. The same amount of an aliquot of the mating culture was spread on both SD/-Leu/-Trp plates to select diploid strains bearing both plasmids and SD/-Leu/-Trp/-His/+3-AT plates to score the growth of the diploid cells that express the two interacting target proteins. The His3 positive colonies were further analyzed for β-galactosidase activity by liquid β-galactosidase activity measurement as essentially described in the protocol.
(§2) Yeast strains Y187 expressing the Gal4DB fusion to the nuclear receptors and CG1945expressing Gal4AD alone or Gal4AD-PNRC fusion protein were mated by co-culturing, and selected for the presence of both two-hybrid plasmids. The expression of interacting hybrid proteins in yeast diploids was analyzed to determine if there was induction of HIS3 expression as shown in FIG. 1A and LacZ expression as shown in FIGS. 1B and 1C. […] As shown in FIGS. 1A-C, PNRC also interacted specifically with all seven nuclear receptor HBDs, including ER, AR, GR, TR, PR, RAR and RXR, and these interactions were completely ligand-dependent. […] However, no interactions occurred either between PNRC and an irrelevant protein such as human lamin C protein or between nuclear receptors and Gal4activation domain alone.

RXR HBD = assay: as above; type: cell-based; conditions: 10 μM of 9-cis-retinoic acid
Procedure: as §1, §2

TR HBD = assay: as above; type: cell-based; conditions: 10 μM of T3
Procedure: as §1, §2

RAR HBD = assay: as above; type: cell-based; conditions: 10 μM of all-trans-retinoic acid
Procedure: as §1, §2

PR HBD = assay: as above; type: cell-based; conditions: 500 nM of progesterone
Chain of PR HBD (P06401 679-933 limits assumed): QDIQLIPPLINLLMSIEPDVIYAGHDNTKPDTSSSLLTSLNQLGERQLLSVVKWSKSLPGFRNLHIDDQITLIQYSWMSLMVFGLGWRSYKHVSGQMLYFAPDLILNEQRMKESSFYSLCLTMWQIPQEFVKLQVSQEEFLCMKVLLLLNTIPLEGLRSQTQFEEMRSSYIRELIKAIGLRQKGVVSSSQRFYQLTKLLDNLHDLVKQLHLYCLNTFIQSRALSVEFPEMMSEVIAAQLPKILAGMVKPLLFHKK
Procedure: as §1, §2

SF1 [2] = target: T1, SF1; assay: GST pull-down binding assay; set-up: The coding region for the wild type bovine SF1 was first subcloned into a yeast expression vector, pGBT9; expressed in transfected cells; host or cells: yeast (Y187, or Y187 x CG1945 diploids); species or system bovine; conditions: GST fusion on glutathione Sepharose beads, 2 hour at 4° C.
Procedure: To further confirm the interaction between PNRC and SF1 which was detected in both the yeast and the mammalian two-hybrid assays, a GST pull-down binding assay was performed to study the direct binding between PNRC and SF1 in vitro. The PNRC cDNA fragments were generated by PCR and inserted into E. coli expression vector pGEX2TK (Pharnacia) through a BamHI site to express GST-PNRC wild type and deletion mutants fusion proteins. Wild type bovine SF1 cDNA in pSG5 vector was translated in vitro in the presence of [^35S]methionine using the TNT Coupled Reticulocyte Lysate System (Promega, Madison, Wis.). GST and deleted PNRC fusion proteins, GST-PNRC270-327 and GST-PNRC278-300, were prepared using the affinity matrix Glutathione Sepharose 4B (Pharmacia) according to the supplier's instructions. The washed beads containing about 10 μg GST fusion protein were incubated for 2 hour at 4° C. with 4 μl in vitro translated, [^35S]methionine-labeled SF1 in a total volume of 150 μl incubation buffer (50 mM Kpi, pH 7.4, 100 mM NaCl, 1 mM MgCl2, 10% glycerol, 0.1% Tween 20, 1.5% BSA) (Treuter et al., 1998). […]
PNRC fragments, including PNRC270-327 and PNRC278-300 were expressed as fusion proteins with glutathione S-transferase (GST) in E. coli BL21, purified with glutathione Sepharose 4B beads, and tested for their ability to bind in vitro translated [^35S]methionine-labeled SF1 in pull-down assays.

SF1 [3] = target: T1, SF1; assay: Mammalian two-hybrid assay in SK-BR-3 cells (CAT reporter); type: cell-based, bovine; set-up: expressed in transfected cells; host or cells: SK-BR-3
Procedure: The Mammalian MatchMaker two-hybrid assay system (Clontech) was used to confirm the interaction between PNRC and SF1 that was identified in the yeast assays. Because the assays are performed in mammalian cells, proteins are more likely to be in their native conformations, and the results are therefore more likely to represent biologically significant interactions. SK-BR-3 breast cancer cells were cotransfected with three expression plasmids, including pM-SF1 for Gal4 DNA-DB/SF1 fusion protein, pVP16-PNRC for VP16AD-PNRC fusion protein, and a third vector, pG5CAT, to provide the Gal4 DNA-binding site, a promoter, and the CAT reporter gene.
A set of plasmids, named pM-SF1, pVP16-PNRC, pVP16-PNRC270-327, and pVP16-PNRC278-300, for mammalian two-hybrid assays were prepared as follows: SF1 cDNA fragment was excised from pGBT9-SF1 and inserted in frame into Gal4 DNA-binding domain vector pM (Clontech) through an EcoRI site. PCR was used to generate PNRC full length coding region as well as the above mentioned deleted fragments with BclI at both ends. The PCR products were digested with BclI and inserted in proper reading frame into a pVP16 activation domain vector (Clontech) at a BamHI site. Mammalian two-hybrid assays in SK-BR-3 cells were performed according to the procedures described in the Clontech protocol (PT3002-1).

[4] = target: Gal4DBD-ERRα1 fusion protein (estrogen related receptor α-1, pGBT9-ERRα-1) (UniProt P04386 1-147; P11474 1-423); assay: yeast two-hybrid (HIS3 and LacZ reporters)
[5] = target: T2, Gal4DBD fusion of ERα ligand-binding domain, amino acids 274 to 595 (pGBT9-ER274-595) (UniProt P04386 1-147; P03372 274-595); assay: yeast two-hybrid (HIS3 and LacZ reporters)
T2 construct: Tested with 100 nM estradiol; also called ER HBD

[6] = target: T3, Gal4DBD-SF1 fusion protein (bovine steroidogenic factor 1, pGBT9-SF1) (bovine, UniProt P04386 1-147; Q04752 1-461); assay: yeast two-hybrid (HIS3 and LacZ reporters)
T3 construct: Yeast two-hybrid bait; whole wild type coding region; also called DBDGal4-SF1

[7] = target: T4, Gal4AD-PNRC fusion protein (full-length proline-rich nuclear receptor co-regulatory protein) (human, UniProt Q12796 1-327); assay: yeast two-hybrid (HIS3 and LacZ reporters)
T4 construct: Yeast two-hybrid prey; also called wild type PNRC in pACT2; B4-2
T4 sequence (Q12796 whole entry, the tested form may be a part): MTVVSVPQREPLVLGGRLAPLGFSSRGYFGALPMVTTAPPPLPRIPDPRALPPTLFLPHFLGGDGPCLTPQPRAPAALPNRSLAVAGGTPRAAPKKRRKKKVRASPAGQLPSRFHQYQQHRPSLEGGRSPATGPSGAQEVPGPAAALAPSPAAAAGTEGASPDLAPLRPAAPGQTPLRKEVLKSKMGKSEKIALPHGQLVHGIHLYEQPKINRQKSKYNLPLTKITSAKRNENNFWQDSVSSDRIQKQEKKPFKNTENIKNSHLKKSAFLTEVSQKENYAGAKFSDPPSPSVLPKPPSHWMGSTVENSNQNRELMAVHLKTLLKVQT

[8] = target: T5, Gal4 DNA-DB/SF1 fusion protein (pM-SF1) (bovine, UniProt P04386 1-147; Q04752 1-461); assay: mammalian two-hybrid, CAT reporter, SK-BR-3 cells
T5 construct: Mammalian two-hybrid construct, expressed in SK-BR-3 cells

## PNRC/270-317: PNRC fragment aa 270-317 lacking the NR box, Gal4 AD fusion protein
SF1 [1]
  interaction with SF1: about the same

## PNRC278-300 (mutant): PNRC278-300 carrying double mutations P287A and P290A (S-D-A-P-S-A-S, SEQ ID NO:6) (SDAPSAS; MUTAGEN (3) This residue has been changed from a proline.; listed as Homo sapiens)
SF1 [1]
  interaction with SF1: almost completely abolished the interactions
RXR HBD
  interaction with RXR: almost completely abolished the interactions
TR HBD
  interaction with TR: almost completely abolished the interactions
RAR HBD
  interaction with RAR: almost completely abolished the interactions
PR HBD
  interaction with PR: almost completely abolished the interactions

## NR box: NR box-like sequence LKTLL (aa 319-323; SEQ ID NO:4) of PNRC as fusion protein with Gal4 AD (not fully specified; UniProt Q12796 319-323, looked up, fragment)
SF1 [1]
  interaction with SF1: No interaction was observed

## PNRC/270-327: C-terminal PNRC fragment aa 270-327, expressed as Gal4AD, VP16 or GST fusion protein
SF1 [1]
  interaction with SF1: about the same; also recorded: stronger than the interaction between PNRC/278-300 and SF1
SF1 [2]
  binding of in vitro translated 35S-labeled SF1: found to bind SF1

## PNRC278-300: 23-amino acid PNRC region aa 278-300 (SEQ ID NO:9), expressed as Gal4AD, VP16 or GST fusion protein (NYAGAKFSDPPSPSVLPKPPSHW; listed as Homo sapiens)
SF1 [3]
  interaction with SF1 in mammalian two-hybrid assay: retain most of the interaction of full length PNRC to SF1
SF1 [1]
  interaction with SF1: able to interact with SF1
SF1 [2]
  binding of in vitro translated 35S-labeled SF1: found to bind SF1

## PNRC301-327: PNRC fragment aa 301-327 containing the NR box, Gal4AD fusion protein
SF1 [1]
  interaction with SF1: could not interact with SF1

B1: Gal4 activation domain alone (other, UniProt P04386 768-881, looked up)
chain: ANFNQSGNIADSSLSFTFTNSSNGPNLITTQTNSQALSQPIASSNVHDNFMNNEITASKIDDGNNSKPLSPGWTDQTAYNAFGITTGMFNTTTMDDVYNYLFDDEDTPPNPKKE
notes: Control of the yeast two-hybrid assays; also called Gal4AD; AD vector alone
[4]
  binding result: no binding
[5]
  binding result: no binding
[6]
  binding result: no binding

B2: human lamin C protein (irrelevant protein, DNA-BD/control plasmid) (other, UniProt P04386 1-147, looked up)
chain: MKLLSSIEQACDICRLKKLKCSKEKPKCAKCLKNNWECRYSPKTKRSPLTRAHLTEVESRLERLEQLFLLIFPREDLDMILKMDSLQDIKALLTGLFVQDNVNKDAVTDRLASVETDMPLTLRQHRISATSSSEESSNKGQRQLTVSSEEVVSREVSGIKAAYEAELGDARKTLDSVAKERARLQLELSKVREEFKELKARNTKKEGDLIAAQARLKDLEALLNSKEAALSTALSEKRTLEGELHDLRGQVAKLEAALGEAKKQLQDEMLRRVDAENRLQTMKEELDFQKNIYSEELRETKRRHETRLVEID
notes: that lamin C is the DNA-BD control fusion is inferred from these two statements
[7]
  binding result: no binding

B3: VP16 activation domain alone (other)
chain: STAPPTDVSLGDELHLDGEDVAMAHADALDDFDLDMLGDGDSPGP
notes: Control of the mammalian two-hybrid assay; also called VP16 AD
[8]
  binding result: no binding
